Assay results taken from PMC9712776.

T1: GST-tagged SH3 domain of Bin1
T1 chain: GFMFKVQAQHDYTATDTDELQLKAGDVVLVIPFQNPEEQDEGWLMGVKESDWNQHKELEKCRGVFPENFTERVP


Biological target: T1, GST-tagged SH3 domain of Bin1
Assay: GST pulldown
Settings: parent: 1.0, read off a plot
[1] = chain shown with the change, 12 µg GST-Bin-SH3, 6 µg purified Dyn2

ratio to parent [1] | ratio to parent (chain shown with the change;) | Binder
0.86 | 1.2 | dynamin-2 (human Dyn2 isoform 1), wild type, P50570 S848A (protein) MGNRGMEELIPLVNKLQDAFSSIGQSCHLDLPQIAVVGGQSAGKSSVLENFVGRDFLPRGSGIVTRRPLILQLIFSKTEHAEFLHCKSKKFTDFDEVRQEIEAETDRVTGTNKGISPVPINLRVYSPHVLNLTLIDLPGITKVPVGDQPPDIEYQIKDMILQFISRESSLILAVTPANMDLANSDALKLAKEVDPQGLRTIGVITKLDLMDEGTDARDVLENKLLPLRRGYIGVVNRSQKDIEGKKDIRAALAAERKFFLSHPAYRHMADRMGTPHLQKTLNQQLTNHIRESLPALRSKLQSQLLSLEKEVEEYKNFRPDDPTRKTKALLQMVQQFGVDFEKRIEGSGDQVDTLELSGGARINRIFHERFPFELVKMEFDEKDLRREISYAIKNIHGVRTGLFTPDLAFEAIVKKQVVKLKEPCLKCVDLVIQELINTVRQCTSKLSSYPRLREETERIVTTYIREREGRTKDQILLLIDIEQSYINTNHEDFIGFANAQQRSTQLNKKRAIPNQGEILVIRRGWLTINNISLMKGGSKEYWFVLTAESLSWYKDEEEKEKKYMLPLDNLKIRDVEKGFMSNKHVFAIFNTEQRNVYKDLRQIELACDSQEDVDSWKASFLRAGVYPEKDQAENEDGAQENTFSMDPQLERQVETIRNLVDSYVAIINKSIRDLMPKTIMHLMINNTKAFIHHELLAYLYSSADQSSLMEESADQAQRRDDMLRMYHALKEALNIIGDISTSTVSTPVPPPVDDTWLQSASSHSPTPQRRPVSSIHPPGRPPAVRGPTPGPPLIPVPVGAAASFSAPPIPSRPGPQSVFANSDLFPAPPQIPSRPVRIPPGIPPGVPARRPPAAPSRPTIIRPAEPSLLD
– | 1.1 | dynamin-2 (human Dyn2 isoform 1), wild type, P50570 S856A (protein) MGNRGMEELIPLVNKLQDAFSSIGQSCHLDLPQIAVVGGQSAGKSSVLENFVGRDFLPRGSGIVTRRPLILQLIFSKTEHAEFLHCKSKKFTDFDEVRQEIEAETDRVTGTNKGISPVPINLRVYSPHVLNLTLIDLPGITKVPVGDQPPDIEYQIKDMILQFISRESSLILAVTPANMDLANSDALKLAKEVDPQGLRTIGVITKLDLMDEGTDARDVLENKLLPLRRGYIGVVNRSQKDIEGKKDIRAALAAERKFFLSHPAYRHMADRMGTPHLQKTLNQQLTNHIRESLPALRSKLQSQLLSLEKEVEEYKNFRPDDPTRKTKALLQMVQQFGVDFEKRIEGSGDQVDTLELSGGARINRIFHERFPFELVKMEFDEKDLRREISYAIKNIHGVRTGLFTPDLAFEAIVKKQVVKLKEPCLKCVDLVIQELINTVRQCTSKLSSYPRLREETERIVTTYIREREGRTKDQILLLIDIEQSYINTNHEDFIGFANAQQRSTQLNKKRAIPNQGEILVIRRGWLTINNISLMKGGSKEYWFVLTAESLSWYKDEEEKEKKYMLPLDNLKIRDVEKGFMSNKHVFAIFNTEQRNVYKDLRQIELACDSQEDVDSWKASFLRAGVYPEKDQAENEDGAQENTFSMDPQLERQVETIRNLVDSYVAIINKSIRDLMPKTIMHLMINNTKAFIHHELLAYLYSSADQSSLMEESADQAQRRDDMLRMYHALKEALNIIGDISTSTVSTPVPPPVDDTWLQSASSHSPTPQRRPVSSIHPPGRPPAVRGPTPGPPLIPVPVGAAASFSAPPIPSRPGPQSVFANSDLFPAPPQIPSRPVRIPPGIPPGVPSRRPPAAPARPTIIRPAEPSLLD
0.42 | 0.66 | dynamin-2 (human Dyn2 isoform 1), wild type, P50570 S848E (protein) MGNRGMEELIPLVNKLQDAFSSIGQSCHLDLPQIAVVGGQSAGKSSVLENFVGRDFLPRGSGIVTRRPLILQLIFSKTEHAEFLHCKSKKFTDFDEVRQEIEAETDRVTGTNKGISPVPINLRVYSPHVLNLTLIDLPGITKVPVGDQPPDIEYQIKDMILQFISRESSLILAVTPANMDLANSDALKLAKEVDPQGLRTIGVITKLDLMDEGTDARDVLENKLLPLRRGYIGVVNRSQKDIEGKKDIRAALAAERKFFLSHPAYRHMADRMGTPHLQKTLNQQLTNHIRESLPALRSKLQSQLLSLEKEVEEYKNFRPDDPTRKTKALLQMVQQFGVDFEKRIEGSGDQVDTLELSGGARINRIFHERFPFELVKMEFDEKDLRREISYAIKNIHGVRTGLFTPDLAFEAIVKKQVVKLKEPCLKCVDLVIQELINTVRQCTSKLSSYPRLREETERIVTTYIREREGRTKDQILLLIDIEQSYINTNHEDFIGFANAQQRSTQLNKKRAIPNQGEILVIRRGWLTINNISLMKGGSKEYWFVLTAESLSWYKDEEEKEKKYMLPLDNLKIRDVEKGFMSNKHVFAIFNTEQRNVYKDLRQIELACDSQEDVDSWKASFLRAGVYPEKDQAENEDGAQENTFSMDPQLERQVETIRNLVDSYVAIINKSIRDLMPKTIMHLMINNTKAFIHHELLAYLYSSADQSSLMEESADQAQRRDDMLRMYHALKEALNIIGDISTSTVSTPVPPPVDDTWLQSASSHSPTPQRRPVSSIHPPGRPPAVRGPTPGPPLIPVPVGAAASFSAPPIPSRPGPQSVFANSDLFPAPPQIPSRPVRIPPGIPPGVPERRPPAAPSRPTIIRPAEPSLLD
– | 1 | dynamin-2 (human Dyn2 isoform 1), wild type, P50570 S856E (protein) MGNRGMEELIPLVNKLQDAFSSIGQSCHLDLPQIAVVGGQSAGKSSVLENFVGRDFLPRGSGIVTRRPLILQLIFSKTEHAEFLHCKSKKFTDFDEVRQEIEAETDRVTGTNKGISPVPINLRVYSPHVLNLTLIDLPGITKVPVGDQPPDIEYQIKDMILQFISRESSLILAVTPANMDLANSDALKLAKEVDPQGLRTIGVITKLDLMDEGTDARDVLENKLLPLRRGYIGVVNRSQKDIEGKKDIRAALAAERKFFLSHPAYRHMADRMGTPHLQKTLNQQLTNHIRESLPALRSKLQSQLLSLEKEVEEYKNFRPDDPTRKTKALLQMVQQFGVDFEKRIEGSGDQVDTLELSGGARINRIFHERFPFELVKMEFDEKDLRREISYAIKNIHGVRTGLFTPDLAFEAIVKKQVVKLKEPCLKCVDLVIQELINTVRQCTSKLSSYPRLREETERIVTTYIREREGRTKDQILLLIDIEQSYINTNHEDFIGFANAQQRSTQLNKKRAIPNQGEILVIRRGWLTINNISLMKGGSKEYWFVLTAESLSWYKDEEEKEKKYMLPLDNLKIRDVEKGFMSNKHVFAIFNTEQRNVYKDLRQIELACDSQEDVDSWKASFLRAGVYPEKDQAENEDGAQENTFSMDPQLERQVETIRNLVDSYVAIINKSIRDLMPKTIMHLMINNTKAFIHHELLAYLYSSADQSSLMEESADQAQRRDDMLRMYHALKEALNIIGDISTSTVSTPVPPPVDDTWLQSASSHSPTPQRRPVSSIHPPGRPPAVRGPTPGPPLIPVPVGAAASFSAPPIPSRPGPQSVFANSDLFPAPPQIPSRPVRIPPGIPPGVPSRRPPAAPERPTIIRPAEPSLLD
